Data from US20240209076A1 (KODIAK SCIENCES, published 2024).
Residue numbers refer to the chain shown, from its start. Names may count otherwise.

B1: anti-IL-6 antibody, light chain M32V (heavy chain WT) (antibody, V domains shown)
VH: EVQLVESGGGLVQPGGSLRLSCAASGFTFSPFAMSWVRQAPGKGLEWVAKISPGGSWTYYSDTVTGRFTFSLDTSKSTAYLQMNSLRAEDTAVYYCARQLWGYYALDIWGQGTLVTVSS
VL: DIQLTQSPSSLSASVGDRVTITCSASISVSYVYWYQQKPGKAPKLLIYDMSNLASGVPSRFSGSGSGTDFTLTISSLQPEDFATYYCMQWSGYPYTFGQGTKVEIK
notes: See note of m2; also called WT / M32V
B2: anti-IL-6 antibody, light chain T96V (heavy chain WT) (antibody, V domains shown)
VH: B1 VH
VL: B1 VL with V32M, T96V
notes: See note of m2; also called WT / T96V
B3: anti-IL-6 antibody, light chain T96L (heavy chain WT) (antibody, V domains shown)
VH: B1 VH
VL: B1 VL with V32M, T96L
notes: See note of m2; also called WT / T96L
B4: anti-IL-6 antibody, light chain M88V (heavy chain WT) (antibody, V domains shown)
VH: B1 VH
VL: B1 VL with V32M, M88V
notes: See note of m2; also called WT / M88V
B5: anti-IL-6 antibody, light chain M50D (heavy chain WT) (antibody, V domains shown)
VH: B1 VH
VL: B1 VL with V32M, M50D
notes: See note of m2; also called WT / M50D
B6: anti-IL-6 antibody, light chain M88A (heavy chain WT) (antibody, V domains shown)
VH: B1 VH
VL: B1 VL with V32M, M88A
notes: See note of m2; also called WT / M88A
B7: dual inhibitor molecule A (VEGF Trap-AntiIL-6) (other)
heavy: SDTGRPFVEMYSEIPEIIHMTEGRELVIPCRVTSPNITVTLKKFPLDTLIPDGKRIIWDSRKGFIISNATYKEIGLLTCEATVNGHLYKTNYLTHRQTNTIIDVVLSPSHGIELSVGEKLVLNCTARTELNVGIDFNWEYPSSKHQHKKLVNRDLKTQSGSEMKKFLSTLTIDGVTRSDQGLYTCAASSGLMTKKNSTFVRVHEKGGGGSGGGGSEVQLVESGGGLVQPGGSLRLSCAASGFTFSPFAISWVRQAPGKGLEWVAKISPGGSWTYYSDTVTDRFTFSLDTSKSTAYLQMNSLRAEDTAVYYCARQLWGYYALDVWGQGTLVTVSSASTKGPSVFPLAPSSKSTSGGTAALGCLVKDYFPEPVTVSWNSGALTSGVHTFPAVLQSSGLYSLSSVVTVPSSSLGTQTYICNVNHKPSNTKVDKKVEPKSCDKTHTCPPCPAPEAAGAPSVFLFPPKPKDTLMISRTPEVTCVVVDVSHEDPEVKFNWYVDGVEVHNAKTKPREEQYNSTYRVVSVLTVLHQDWLNGKEYKCKVSNKALPAPIEKTISKAKGQPREPQVYTLPPSREEMTKNQVSLTCLVKGFYPSDIAVEWESNGQPENNYKTTPPVLDSDGSFFLYSKLTVDKSRWQQGNVFSCSVMHEALHNHYTQKSLSCSPGK
light: DIQLTQSPSSLSASVGDRVTITCSASISVSYLYWYQQKPGKAPKLLIYDDSSLASGVPSRFSGSGSGTDFTLTISSLQPEDFATYYCQQWSGYPYTFGQGTKVEIKRTVAAPSVFIFPPSDEQLKSGTASVVCLLNNFYPREAKVQWKVDNALQSGNSQESVTEQDSKDSTYSLSSTLTLSKADYEKHKVYACEVTHQGLSSPVTKSFNRGEC
B8: dual inhibitor molecule B (VEGF Trap-AntiIL-6) (other)
heavy: B7 heavy
light: B7 light with D50A
notes: Trap-antibody fusion, VEGF trap at the N-terminus of the anti-IL-6 heavy chain (VH variant I); light chain variant IV

These binders were tested against T1, recombinant human IL-6 (human, UniProt P05231 30-212) (assay: SPR Biacore, supernatant Ab on Protein A chip, IL-6 analyte, 25 C).
T1 construct: Bought protein
T1 sequence (P05231 30-212 limits assumed): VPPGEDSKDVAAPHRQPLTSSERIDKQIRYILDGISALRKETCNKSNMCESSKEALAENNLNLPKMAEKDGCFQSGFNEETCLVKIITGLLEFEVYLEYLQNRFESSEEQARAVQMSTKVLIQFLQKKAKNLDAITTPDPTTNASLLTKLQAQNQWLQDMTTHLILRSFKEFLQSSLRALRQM

Row | Kd [nM] | koff [s⁻¹] | kon [M⁻¹ s⁻¹] | Binder
1 | 0.23 | 0.000116 | 505000 | B1
2 | 0.423 | 0.000192 | 454000 | B2
3 | 0.259 | 0.000135 | 520000 | B3
4 | 0.239 | 0.000107 | 448000 | B4
5 | 0.138 | 0.000112 | 806000 | B5
6 | 0.282 | 0.000127 | 451000 | B6

These binders were tested against T1, recombinant human IL-6 (assay: SPR Biacore, purified dual inhibitor on Protein A chip, IL-6 analyte, 37 C).

Row | Kd [nM] | koff [s⁻¹] | kon [M⁻¹ s⁻¹] | Binder
7 | 0.484 | 0.000538 | 1.11e+06 | B7
8 | 0.507 | 0.000536 | 1.06e+06 | B8

These binders were tested against T1, recombinant human IL-6 (assay: SPR Biacore, purified Ab on Protein A chip, IL-6 analyte, 37 C).
Method: Antibodies were captured on a Protein A chip (GE) by injecting 1:20 dilution of cell supernatant at 10 μL/min for 60 seconds. […] The sensor chip was regenerated by a 60 seconds injection of 10 mM Glycine pH 1.7 at flow rate of 50 μL/min. […] For this setup, 1 μg/mL of purified antibody was injected over a Protein A chip at 10 μL/min for 25-28 seconds. Data analysis for supernatant and purified samples were performed using BIAevaluation software (GE). All sensorgrams were double reference subtracted and fit using a 1:1 Langmuir binding model.

Row | Kd [nM] | koff [s⁻¹] | kon [M⁻¹ s⁻¹] | Binder
9 | 0.429 | 0.000369 | 861000 | B1
10 | 0.695 | 0.000639 | 921000 | B2
11 | 0.901 | 0.000795 | 882000 | B3
12 | 0.713 | 0.000441 | 619000 | B4
13 | 0.311 | 0.000464 | 1.49e+06 | B5
14 | 2.25 | 0.00132 | 586000 | B6

These binders were tested against T1, recombinant human IL-6 (assay: SPR Biacore, supernatant dual inhibitor on Protein A chip, IL-6 analyte, 25 C).

Row | Kd [nM] | koff [s⁻¹] | kon [M⁻¹ s⁻¹] | Binder
15 | 0.589 | 0.000182 | 309000 | B7
16 | 0.305 | 0.000185 | 605000 | B8
